This note sets out measurements from the supplement of paper PMC9170038.

This series deals with MS2 coat protein. Briefly: apparent KD of MS2 coat protein; designed switch direction (-1 OFF switch, 1 ON switch): -1; higher = weaker reporter binding. The essentials: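 Apparent KD, taken as the median over clusters for each design, was obtained by curve-fitting normalised cluster fluorescence. Designed RNA switches had been transcribed on Illumina chips by stalled E. coli RNA polymerase and titrated with SNAP-549-labelled MS2 coat protein, doubling from 0.7 or 1.5 nM to 3 µM.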

Setting [1] is: input ligand: microRNA oligo, concentration not stated.
Where [2] appears, read: Eterna round: R95, input ligand: microRNA oligo, concentration not stated.
Where [3] appears, read: Eterna round: R95, input ligand: FMN 200 uM.
The mark [4] stands for this setting: Eterna round: R95, input ligand: none.

With “AUAAUGUCAGGAUAUCAGACGUACAGCUGCGGCUGUACGUCUGAGAAGGGACAUGAGGAUCACCCAUGUGAUUA [E4/3-A3] (Eterna round: R97, puzzle: Exclusion 4)”, the “apparent KD of MS2 coat protein” value was found to be 124 nM (input ligand: FMN 200 uM) and 1460 nM (input ligand: none).

Take “AUAAUUAAUGCAGGAUAUCAGCACGUUUAGUGCUGAGAAGGGCACAUGAGGAUCACCCAUGUGAUCAAUUAAUAUUAAUAUUAU [ENG1/11-D2] (Eterna round: R96, puzzle: Exclusion NG 1)”: the “apparent KD of MS2 coat protein” value by setting is: (input ligand: FMN 200 uM) 269 nM; under setting [1], 51.1 nM; (input ligand: none) 65 nM.

Regarding “AUACACUAACGAGGAUAUUGGAAAGGAAGUGUACAAGAAGGCGUCCGUGGAAGGGUGAAACAUGAGGAUCACCCAUGUGAAUAA [Exclusion NG 1] (Eterna round: R96, puzzle: Exclusion NG 1)”, the “apparent KD of MS2 coat protein” value (input ligand: FMN 200 uM) worked out at 519 nM, the “apparent KD of MS2 coat protein” value under setting [1] was determined as 254 nM and the “apparent KD of MS2 coat protein” value (input ligand: none) was determined as 648 nM.

As for “AUACACUAGCGAGGAUAUUGGAAAGGAAGUGUACAAGAAGGCGCCCGUGGAAGGGUGAAACAUGAGGAUCACCCAUGUGAAUAA [PowerStrip EXNG 1.29] (Eterna round: R96, puzzle: Exclusion NG 1)”, the “apparent KD of MS2 coat protein” value stood at 151 nM (input ligand: FMN 200 uM), 96.2 nM under setting [1] and 66.1 nM (input ligand: none).

On to “AUACUCGUUGUGAGGAUAUCGUUUUCGUCACGGAUCGAGAAGGCACAUGAGGAUCACCCAUGUUUGACGUGAAU [JR_BMOE4_Sub092] (puzzle: Brourd's mod of Exclusion 4)”, for which the “apparent KD of MS2 coat protein” value under setting [2] stood at 15.4 nM.

In the case of “AUAGGUUCGUAGGAUAUUCCUGCAGGCGCGCUGGAAGAAGGAUGAACAUGAGGAUCACCCAUGUGAACACUCCG [Eternabot (L2) Solution 88] (Eterna round: R97, puzzle: Exclusion 6)”, the “apparent KD of MS2 coat protein” value reads like this: (input ligand: FMN 200 uM) 78.3 nM; (input ligand: none) 19.6 nM.

For “AUAUACAAGCAAAGAUCCUACAUGAGGAUCACCCAUGUGUUCGUCUUAUAAAGUACUAUCACGAAAGUGAUAGUACA [Mat - Sensor v3 - turn-off var 1 - Eli Mod - D80] (puzzle: Sensor v3, turn-off variant 1)”, the “apparent KD of MS2 coat protein” value is, setting by setting: under setting [3], 161 nM; under setting [2], 6.99 nM; under setting [4], 87.8 nM.

Take “AUAUACGGAGGAUAUACUUGAGGAUCACCCAAGUGGAAUCCCGUUUGGGCGGUAAAUAGUAGAAGGCCGACCCA [jl-ex3-4.42 ViennaUCT mod] (Eterna round: R97, puzzle: Exclusion 3)”: the “apparent KD of MS2 coat protein” value was found to be 17.7 nM (input ligand: FMN 200 uM) and 16.3 nM (input ligand: none).

Regarding “AUAUACGGAGGAUAUACUUGAGGAUCACCCAAGUGGAGUCCCGUUUGGGCGGUAAAUAGUAGAAGGCCGUCCCA [jl-ex3-4.44 ViennaUCT mod] (Eterna round: R97, puzzle: Exclusion 3)”, the “apparent KD of MS2 coat protein” value worked out at 16.8 nM (input ligand: FMN 200 uM) and 12.3 nM (input ligand: none).

As to “AUAUAUAGUGUGAGGAUAUGCUGGUCCUUGGAUCAGCAGAAGGCACAUGAGGAUCACCCAUGUAGUUUAUUUUA [Mat - Exclusion 4 - JL Mod - D1] (puzzle: Brourd's mod of Exclusion 4)”, the “apparent KD of MS2 coat protein” value under setting [2] was found to be 29.3 nM.

Regarding “AUAUUAAUAUAGGAUAUCGAAAUUAUUAAUUAUCGAGAAGGAUAAACAUGAGGAUCACCCAUGUGGUAUCAUGG [Mat - Exclusion 6 - JL Mod - D41] (puzzle: Exclusion 6)”, the “apparent KD of MS2 coat protein” value is, setting by setting: under setting [3], 257 nM; under setting [2], 257 nM; under setting [4], 328 nM.

As to “AUAUUGUGAGGAUAUGAAGUUAGUAUCGAAAGAUACUAAGUUCAGAAGGCACAUGAGGAUCACCCAUGUUUCUC [Long static hairpin v4] (Eterna round: R97, puzzle: Exclusion 4)”, the “apparent KD of MS2 coat protein” value came to 710 nM (input ligand: FMN 200 uM) and 71.5 nM (input ligand: none).

As for “AUAUUGUGAGGAUAUGAUCUUAGUAUCGAAAGAUACUAAGUUCAGAAGGCACAUGAGGAUCACCCAUGUUUCUC [Long static hairpin v14] (Eterna round: R97, puzzle: Exclusion 4)”, the “apparent KD of MS2 coat protein” value by setting is: (input ligand: FMN 200 uM) 982 nM; (input ligand: none) 70.6 nM.

For “AUCAAGGGAGGAUAUACAGUGAACAGUACUAGUCAGGCGGCACAUGAGGAUCACCCAUGUAGAAGGCCCAUGAU [Eternabot (L1) Solution 70] (Eterna round: R97, puzzle: Exclusion 2)”, the “apparent KD of MS2 coat protein” value (input ligand: FMN 200 uM) stood at 80 nM and the “apparent KD of MS2 coat protein” value (input ligand: none) is 24.8 nM.

On to “AUCAGCUCGUCAGGAUAUACAUGCGUGCUUCGGCACGAAUUUAAGAUCACAUGAGGAUCACCCAUGUAGAAGGGACGAGCUGAU [ENG2/3-B3] (Eterna round: R96, puzzle: Exclusion NG 2)”, for which the “apparent KD of MS2 coat protein” value (input ligand: FMN 200 uM) was determined as 1270 nM, the “apparent KD of MS2 coat protein” value under setting [1] stood at 498 nM and the “apparent KD of MS2 coat protein” value (input ligand: none) was found to be 526 nM.

Take “AUCAGCUCGUGAGGAUAUACAUGAGGAUCACCCAUGUGAUCAAUAGCAGCUUCGGCUGCAUUAAUGUAGAAGGCACGAGCUGAU [ENG2/5-A3] (Eterna round: R96, puzzle: Exclusion NG 2)”: the “apparent KD of MS2 coat protein” value (input ligand: FMN 200 uM) was determined as 77.9 nM, the “apparent KD of MS2 coat protein” value under setting [1] was determined as 22.2 nM and the “apparent KD of MS2 coat protein” value (input ligand: none) was found to be 214 nM.

As for “AUCAUGUAAGGAUAUCUUACAUGUGACGAAAGUCACAGUUAAGAGAAGGUACAUGAGGAUCACCCAUGUAUAAC [Ex4-3: 36] (puzzle: Exclusion 4)”, under setting [2], the “apparent KD of MS2 coat protein” value is 26.6 nM.

In the case of “AUCCAGGCAGGAUAUUGCCGGUUGCACAUGAGGAUCACCCAUGUACUCCUAGGUCGAUGGCAAGAAGGGCUAUCCA [Eternabot (Original) Solution 24] (Eterna round: R97, puzzle: Exclusion 5)”, the “apparent KD of MS2 coat protein” value is 26.6 nM (input ligand: FMN 200 uM) and 36 nM (input ligand: none).

“AUCGUGCAGCAAAGCUGUACGAGUACAUGAGGAUCACCCAUGUAGGAUAUGGUACGCAAAGCGUGCUAGAAGGAUAUGAGAUUU [Mat - Exclusion NG 3 - Mod of JL - D100] (Eterna round: R96, puzzle: Exclusion NG 3)”: the “apparent KD of MS2 coat protein” value (input ligand: FMN 200 uM) came to 55.4 nM, the “apparent KD of MS2 coat protein” value under setting [1] was found to be 27.8 nM and the “apparent KD of MS2 coat protein” value (input ligand: none) was 45.2 nM.

In the case of “AUCGUGCAGCUUUGCUGUACGAGUACAUGAGGAUCACCCAUGUAGGAUAUGGUACGCUUUGCGUGCUAGAAGGAUAUGAGAUGU [JL ENG3 1.49] (Eterna round: R96, puzzle: Exclusion NG 3)”, the “apparent KD of MS2 coat protein” value by setting is: (input ligand: FMN 200 uM) 37.6 nM; under setting [1], 32 nM; (input ligand: none) 33 nM.

In the case of “AUCGUGUGAGGAUAUCGAUCAUGGAGGUCUAGGUCUAUGCGCGAGAAGGCACAUGAGGAUCACCCAUGUAAUGG [jl-ex4-4.29 ViennaUCT mod] (Eterna round: R97, puzzle: Exclusion 4)”, the “apparent KD of MS2 coat protein” value by setting is: (input ligand: FMN 200 uM) 59.9 nM; (input ligand: none) 636 nM.

In the case of “AUGAGACAUGAGGAUCACCCAUGUGAGGAUAUGUAUGGAUGAAGGAAAGAAUGAGAGAACAGAAGGCACGAAGA [JR_Exclu1_Sub064] (puzzle: Exclusion 1)”, the “apparent KD of MS2 coat protein” value turned out to be 109 nM under setting [3], 98.9 nM under setting [2] and 138 nM under setting [4].

For “AUGAGGUUAGGAUAUACAUGAGGAUCACCCAUGUUGAAAGGUUAGGUAGGCGGAGCUGGUAGAAGGAACGGAGC [JR_Exclu3_Sub056] (puzzle: Exclusion 3)”, under setting [2], the “apparent KD of MS2 coat protein” value is 27.8 nM.
